These results are taken from PMC4806843, “Structural and Functional Analysis of Calcium Ion Mediated Binding of 5-Lipoxygenase to Nanodiscs” (PLoS ONE, 2016).

The data set concerns the molecule itself. In words: SEC; size exclusion chromatography of the purified 5LO preparation; standards aldolase (158 kDa) and conalbumin (75 kDa); two peaks, dimer and monomer. On the technique in general: Size exclusion chromatography separates by hydrodynamic size, large species first.

A word on the stoichiometry N: it is a count of units in the complex or per binding partner.

B1: human 5-lipoxygenase (enzyme, UniProt P09917 1-674, looked up)
chain: MPSYTVTVATGSQWFAGTDDYIYLSLVGSAGCSEKHLLDKPFYNDFERGAVDSYDVTVDEELGEIQLVRIEKRKYWLNDDWYLKYITLKTPHGDYIEFPCYRWITGDVEVVLRDGRAKLARDDQIHILKQHRRKELETRQKQYRWMEWNPGFPLSIDAKCHKDLPRDIQFDSEKGVDFVLNYSKAMENLFINRFMHMFQSSWNDFADFEKIFVKISNTISERVMNHWQEDLMFGYQFLNGCNPVLIRRCTELPEKLPVTTEMVECSLERQLSLEQEVQQGNIFIVDFELLDGIDANKTDPCTLQFLAAPICLLYKNLANKIVPIAIQLNQIPGDENPIFLPSDAKYDWLLAKIWVRSSDFHVHQTITHLLRTHLVSEVFGIAMYRQLPAVHPIFKLLVAHVRFTIAINTKAREQLICECGLFDKANATGGGGHVQMVQRAMKDLTYASLCFPEAIKARGMESKEDIPYYFYRDDGLLVWEAIRTFTAEVVDIYYEGDQVVEEDPELQDFVNDVYVYGMRGRKSSGFPKSVKSREQLSEYLTVVIFTASAQHAAVNFGQYDWCSWIPNAPPTMRAPPPTAKGVVTIEQIVDTLPDRGRSCWHLGAVWALSQFQENELFLGMYPEEHFIEKPVKEAMARFRKNLEAIVSVIAERNKKKQLPYYYLSPDRIPNSVAI
notes: 5-lipoxygenase (5LO), human, recombinant from pT3-5LO; 78 kDa; The preparation holds monomer and dimer, which were separated by SEC; also called 5LO; monomeric 5LO; source: E. coli BL21-(DE3) transformed with pT3-5LO, purified (ammonium sulfate precipitation, ATP agarose, gel filtration)
In the case of B1, the “stoichiometry N” value stood at 2.
